From patent US20040014026A1 (YISSUM RESEARCH DEVELOPMENT COMPANY OF THE HEBREW …, published 2004) come the findings set out here.

B1: Flag-F-Box (F-Box fragment of E3RS) (other, UniProt Q9Y297 1-228, looked up, not shown: small tags and cut ends)
chain: MDPAEAVLQEKALKFMCSMPRSLWLGCSSLADSMPSLRCLYNPGTGALTAFQNSSEREDCNNGEPPRKIIPEKNSLRQTYNSCARLCLNQETVCLASTAMKTENCVAKTKLANGTSSMIVPKQRKLSASYEKEKELCVKYFEQWSESDQVEFVEHLISQMCHYQHGHINSYLKPMLQRDFITALPARGLDHIAENILSYLDAKSLCAAELVCKEWYRVTSDGMLWKKL
notes: domain: F-Box fragment
B2: Flag-tagged E3RS/βTrCP (Flag-E3RS) (other, UniProt Q9Y297 1-605, looked up, not shown: small tags and cut ends)
chain: MDPAEAVLQEKALKFMCSMPRSLWLGCSSLADSMPSLRCLYNPGTGALTAFQNSSEREDCNNGEPPRKIIPEKNSLRQTYNSCARLCLNQETVCLASTAMKTENCVAKTKLANGTSSMIVPKQRKLSASYEKEKELCVKYFEQWSESDQVEFVEHLISQMCHYQHGHINSYLKPMLQRDFITALPARGLDHIAENILSYLDAKSLCAAELVCKEWYRVTSDGMLWKKLIERMVRTDSLWRGLAERRGWGQYLFKNKPPDGNAPPNSFYRALYPKIIQDIETIESNWRCGRHSLQRIHCRSETSKGVYCLQYDDQKIVSGLRDNTIKIWDKNTLECKRILTGHTGSVLCLQYDERVIITGSSDSTVRVWDVNTGEMLNTLIHHCEAVLHLRFNNGMMVTCSKDRSIAVWDMASPTDITLRRVLVGHRAAVNVVDFDDKYIVSASGDRTIKVWNTSTCEFVRTLNGHKRGIACLQYRDRLVVSGSSDNTIRLWDIECGACLRVLEGHEELVRCIRFDNKRIVSGAYDGKIKVWDLVAALDPRAPAGTLCLRTLVEHSGRVFRLQFDEFQIVSSSHDDTILIWDFLNDPAAQAEPPRSPSRTYTYISR
notes: F-box protein, receptor subunit of the IκB-E3; Immunopurified material may carry endogenous Skp1/Cul1; also called β-TrCP/E3RS; WT E3RS
B3: Flag-HOS/β-TrCP2 (other, human, UniProt Q9UKB1 1-542, looked up, not shown: small tags and cut ends)
chain: MEPDSVIEDKTIELMCSVPRSLWLGCANLVESMCALSCLQSMPSVRCLQISNGTSSVIVSRKRPSEGNYQKEKDLCIKYFDQWSESDQVEFVEHLISRMCHYQHGHINSYLKPMLQRDFITALPEQGLDHIAENILSYLDARSLCAAELVCKEWQRVISEGMLWKKLIERMVRTDPLWKGLSERRGWDQYLFKNRPTDGPPNSFYRSLYPKIIQDIETIESNWRCGRHNLQRIQCRSENSKGVYCLQYDDEKIISGLRDNSIKIWDKTSLECLKVLTGHTGSVLCLQYDERVIVTGSSDSTVRVWDVNTGEVLNTLIHHNEAVLHLRFSNGLMVTCSKDRSIAVWDMASATDITLRRVLVGHRAAVNVVDFDDKYIVSASGDRTIKVWSTSTCEFVRTLNGHKRGIACLQYRDRLVVSGSSDNTIRLWDIECGACLRVLEGHEELVRCIRFDNKRIVSGAYDGKIKVWDLQAALDPRAPASTLCLRTLVEHSGRVFRLQFDEFQIISSSHDDTILIWDFLNVPPSAQNETRSPSRTYTYISR
notes: also called β-TrCP2/HOS
B4: IKK-phosphorylated IκBα (pIκBα) (other, UniProt P25963 1-317, looked up)
chain: MFQAAERPQEWAMEGPRDGLKKERLLDDRHDSGLDSMKDEEYEQMVKELQEIRLEPQEVPRGSEPWKQQLTEDGDSFLHLAIIHEEKALTMEVIRQVKGDLAFLNFQNNLQQTPLHLAVITNQPEIAEALLGAGCDPELRDFRGNTPLHLACEQGCLASVGVLTQSCTTPHLHSILKATNYNGHTCLHLASIHGYLGIVELLVSLGADVNAQEPCNGRTALHLAVDLQNPDLVSLLLKCGADVNRVTYQGYSPYQLTWGRPSTRIQQQLGQLTLENLQMLPESEDEESYDTESEFTEFTEDELPYDDCVFGGQRLTL
modifications: phosphorylated by IKK2 (sites not given); 35S-labelled in the in vitro assays
notes: in the other assays it was phosphorylated in vitro by IKK2
B5: non-phosphorylated IκBα (other, UniProt P25963 1-317, looked up)
chain: B4 chain
B6: WDK2 (Flag-WD with Lys 326 mutated to Ala) (other, UniProt Q9Y297 229-605, looked up, not shown: small tags and cut ends)
chain: IERMVRTDSLWRGLAERRGWGQYLFKNKPPDGNAPPNSFYRALYPKIIQDIETIESNWRCGRHSLQRIHCRSETSKGVYCLQYDDQKIVSGLRDNTIAIWDKNTLECKRILTGHTGSVLCLQYDERVIITGSSDSTVRVWDVNTGEMLNTLIHHCEAVLHLRFNNGMMVTCSKDRSIAVWDMASPTDITLRRVLVGHRAAVNVVDFDDKYIVSASGDRTIKVWNTSTCEFVRTLNGHKRGIACLQYRDRLVVSGSSDNTIRLWDIECGACLRVLEGHEELVRCIRFDNKRIVSGAYDGKIKVWDLVAALDPRAPAGTLCLRTLVEHSGRVFRLQFDEFQIVSSSHDDTILIWDFLNDPAAQAEPPRSPSRTYTYISR
notes: domain: WD fragment (F-Box deleted E3RS); also called Flag-WD mutant WDK2; mutant WD

The target of experiment [1] is IKK-phosphorylated IκBα (pIκBα) (UniProt P25963). In words: pIκBα binding after heat shock, data not shown.
The target in experiment [2] is T1, hnRNP-U (endogenous protein of 293/293T cells) (UniProt Q00839-2 2-806, limits assumed).
T1 construct: also called p120; 120 kD protein
The experiment can be described thus: anti-Flag immunoprecipitation from 293T cells, Coomassie and Western blot.
Protocol: (§1) The cells were lysed and the extracts immunoprecipitated, using agarose-conjugated anti-Flag (lanes 1-5) and anti-HA (lane 6) antibodies. Immunoprecipitated proteins were analyzed by SDS-PAGE and Coomassie Brilliant Blue staining.

The target in experiment [3] is T1, hnRNP-U (endogenous protein of 293/293T …). The experiment can be described thus: anti-Flag immunopurification from 293T cells, SDS-PAGE Coomassie.
Protocol: as §1
Experiment [4] has the same target. The experiment can be described thus: anti-Flag immunoprecipitation from 293T cells, Western blot with monoclonal anti-hnRNP-U (also Coomassie, FIG. 2A lane 3).
Protocol: Cells were harvested 24-48 h after transfection, and extracted by suspension in 50 mM Tris pH 7.6, 1 mM dithiothreitol (DTT), 0.1% Nonidet P-40 (NP-40), 1 mM phenyl methyl sulfonyl fluoride, 1% Aprotinin and vortexing for 20 sec. Cell extracts were collected following centrifugation at 20,000 g for 30 min at 4° C. Cell extract (500 μg protein) was adjusted to 150 mM NaCl prior to immunoprecipitation. Flag-tagged proteins were immunoprecipitated with 2 μl of the anti-Flag immunobeads. Immunoprecipitation was for 2 h at 4° C. and the immunobeads were washed 4× in 300 mM NaCl, 1 mM DTT, 0.1% NP-40 and 50 mM Tris, pH 7.6. Flag-tagged proteins were eluted from the Flag immunobeads with 1 mg/ml of Flag peptide in 50 mM Tris, pH 7.6 for 30 min at 25° C. hnRNP-U was immunoprecipitated using 0.2-0.5 μl of the 3G6 antibody and 2-5%1 of Protein G immunobeads.
as §1
For experiment [5], the target named is B6. The experiment can be described thus: pull-down of 35S-labelled pIκBα on anti-Flag immunobeads, phosphorimaging.
Description: The beads were washed extensively and associated proteins analyzed by SDS-PAGE and phosphorimaging.
The next experiment concerns the target T2, HA-hnRNP-U (UniProt Q00839-2 1-806, limits assumed).
T2 construct: not shown: HA tag
In words: anti-p65 immunoprecipitation from 293T cells with MEKK and IKK2, anti-HA Western blot.

The target of experiment [6] is T1, hnRNP-U (endogenous protein of 293/293T …). The experiment can be described thus: pIκBα incubated with anti-hnRNP-U immunobeads carrying the hnRNP-U/E3RS complex, Western blot.
Protocol: (§2) IκBα (FIG. 4D, lanes 1,3,4) and IKK phosphorylated IκBα (pIκBα; FIG. 4D, lanes 2,5-7) were incubated with the immunobeads, after which, both the immunobeads (slurry (S); FIG. 4D, lanes 1-3,5) and the post-slurry fractions (PS; FIG. 4D, lanes 4,6) were analyzed by Western blot directly, or after immunoprecipitation of the post-slurry fraction (same as in FIG. 4D, lane 6) with anti-Flag beads (FIG. 4D, lane 7).
For experiment [7] the target is unchanged. The experiment can be described thus: IκBα incubated with anti-hnRNP-U immunobeads carrying the hnRNP-U/E3RS complex, Western blot.
Protocol: as §2
For experiment [8] the target is unchanged. The experiment can be described thus: anti-Flag immunopurification, Flag-peptide elution, Coomassie.
Protocol: To detect specifically dissociated proteins, immunobeads were incubated with Flag peptide (FIG. 3B, lanes 1,4,7), pp10 (FIG. 3B, lanes 2,5,8), p10S/E (FIG. 3B, lanes 3,6,9) and the post-slurry fractions were separated by SDS-PAGE.

“E3K2 (Flag-E3RS with the K2 residue Lys 326 mutated to Ala) (from UniProt Q9Y297 1-605)” displayed a loss of pIκBα binding capacity after heat shock in [1] of 50 to 60%.
For the molecule B1, the binding result in experiment [2] is “no binding”.
With B2, the “Coomassie staining ratio p120/E3RS” value in [3] was 1.5 ratio p120:E3RS.
For B3, the binding result in experiment [4] is on record as “no binding”.
Take B4: the binding result (in [5]; with HA-hnRNP-U; in experiment [6]) was “no binding” throughout.
For the molecule B5, the binding result in experiment [7] was “no binding”.
In the case of B6, the binding result in experiment [8] is “no binding”.
